Reference: PMC3182218, “Obesity Risk Gene TMEM18 Encodes a Sequence-Specific DNA-Binding Protein” (PLoS ONE, 2011)

Target: the molecule itself
Assay: dimer-sized band on SDS-PAGE Western blot; TMEM18 purified from insect cells, bound to DNA-cellulose, washed and eluted with 0.5 M, 1 M and 2 M salt; anti-Flag Western blot; dimer form approx. 34 kDa against monomer form approx. 17 kDa

B1: TMEM18 produced in insect cells (N-terminal Flag-tag followed by eight histidines) (natural protein)
chain: not shown
notes: TMEM18, 140 amino acids; cloned into pK509.3 vector; Flag-tag first, then eight histidine repeats, then TMEM18; detected by anti-Flag Western blot; also called histidine and Flag-tagged TMEM18; source: Sf9 or Tn5 insect cells (baculovirus), purified (nuclear extract in dodecyl maltoside, Ni-sepharose); not shown: Flag, N-terminal, kept
Does B1 bind?
Result: binds
